Assay results published in the DeepSol protein solubility set.

Test: soluble on expression in E. coli; label from the status in PepcDB or PDB records

Sequence	soluble on expression in E. coli
MSLPPCPQCASEYTYEDGGQYICPECAHEWNETESAADLAAQVRDANGAVLQNGDTVILIKDLKVKGSSMVIKQGTKVKGIRLQEGDHNIGCKIDGSAMNLKSEFVKKA	not soluble
MSLPTNPFISLFGRSPIGPMQQHIAKAHECAAGLLPFFRAVIAEDWAQVEQVQQDMVRLEQEADRLKKHVRMHLPKSLFLPVPRSDLLELLSVQDKVANRAKDIAGLMLGRRMRIPLPLQGQMLAYVQRSVDASAQALRVVNELNELLETGFGGRETSLVESMVEELEAIENDTDRIQVEVRRELFRLESELPPVDVMFLYQIIEWIGDVADRAQRVGNRLEQLLAREGHHHHHH	soluble
MSLQENPYQLVKDVEGIGFGKADELGSRMGLSGNHPERVKAAILYTLETTCLSEGHTYIETEQLIIDTQSLLNQSAREGQRITEMDAANAIIALGENKDIVIEDGRCYFPSLFYAEQNVAKRVKHIASQTEYENQFPESEFLLALGELEERMDVQYAPSQKEAIQKALSSPMLLLTGGPGTGKTTVIRGIVELYGELHGVSLDPSAYKKDEAFPIVLAAPTGRAAKRMSESTGLPAVTIHRLLGWNGAEGFTHTEDQPIEGKLLIIDEASMLDIWLANHLFKAIPDHIQIIIVGDEDQLPSVGPGQVLRDLLASQVIPTVRLTDIYRQAEGSSIVELAHQMKNGLLPNNLTAPTKDRSFIRCGGSQIKEVVEKVVANALKKGYTAKDIQVLAPMYRGKAGINELNVMLQDILNPPKEKRRELKFGDVVYRTGDKILQLVNQPENNVFNGDIGEITSIFYAKENTEKEDMAVVSFDGNEMTFTKKDFNQFTHAYCCSIHKSQGSEFPIVVLPVVKGYYRMLRRNLLYTAITRAKKFLILCGEEEALEWGVKNNDATVRQTSLKNRLSVQVEEGHHHHHH	soluble
MSLQIEFREFNPFDCWIWVEFSTVPAPLEQQYLEELFDSWFFLGKLGGFNAENLQAQEEGLELSYMSYQSAQERSSLAALMHNMGEVEYQGRWARCWFDLGTSDAIALDVLLNALQRLSEEMVGLEQVFVGGENADWPSPGRRSLDFAADEGHHHHHH	soluble
MSLQNGKIKGLIFDCYKTLIDIRTDEGSWETNEKVSKWLLYQGVRIEPDRLREEYKWKVIGRLGNSGQKYPDIRIEEIFAEICAENAFREINPFWLGIEAAKVFRTSSLKKLEAYPQSLRLLDKYRNVPKCIVSNAQRVFTEQELHFLGLYDRFNFIIMSSDHRIKKPDTRLFKMALDGLKLEPWEVLSIGDTPENDIYAPQSLGINAMHIRDAWRCVEGHHHHHH	soluble
MSLQQPLAYRMRPRTIDEVVGQQHLVGEGKIIRRMVDARMLSSMILYGPPGTGKTSIASAIAGSTNYAFRMLNAATDSKKDLQVVAEEAKMSGTVILLLDEVHRLDKTKQDFLLPHLESGRIILIGATTENPYITINPAIRSRTQIFEVKPLTEQDIQLAVEHALRDKERGLGQQAIQLDEDALLHLSRATNGDLRSALNGLELATLSTPSDKEGRIHLTLSIIEECVQRKALTHDKNGDAHYDVISAFQKSIRGSDVDAALHYLARLVEAGDLASICRRLMVIGYEDIGLGNPAAAARTVNAVLAAEKLGLPEARIPLADVVVDLCLSPKSNSAYMALDAALADIREGKAGDVPDHLRDSHYKGAKSLNRGVGYQYPHHFDQAWVNQQYLPDKLKNAQYYQPKDTGKYEQALGQQYYRIKEWKEGHHHHHH	soluble
MSLQRKVFPKCQWVGVSEMKGIRPTQEDAVICYPFAPNGIHIFSVLDGHGGSKTSNFAACDLFNNLSKLEKVDENTLSGSVSATLKSLKAQHFNDGSTMALAVITPNRHIFSCHLGDSRTIVVRRDGSISHFTKDHKPDEKSEVKRVLSQHGFILKHRVMGLLAVSSSLGDFEVVGIGHQPVIREWVIDESDKWLVICCDGVFDVLTNEEVGKICQNATSASALAYDIKNIAFELLSQDNISCIAVDLENMAFSNEGHHHHHH	soluble
MSLQRVSNRLIEQSDIENMPNTWKKQAYRQIAKKLGPKSNFPCIFSKNAYKKGLLQFVFMESISHDQMEELKVCLTEFIEANKEWDHRISTAKPLLIVFSTQAIKSERLEDYHSFGWNVLRSIHALDPSPWPHGVDKDPSSPNWSMCFNGMQLFINMSCPAHKVRRSRNLGDHFIMVVNPRERFDVVAGDNAKGHRVRDEIRGRIEIYDNCKPCKQLGYFGSDTMEWQQYGIIEENKTRTSKCPYKIDEGHHHHHH	soluble
MSLQSLWIYPEDTEVLGAACKSLLKALKPRYQKIALFSPISGGCEGFGECESLSSLEVHSAIDKQKALELVSTAQEELLFETILKRYDELQSTHDFVINLGYAPKFFLNALLDLNTILAKHLNAPVVAVAQTSLDHLKAMHSHILKKEAPFAIGLFVGETLEKPHFLSASLCKQQCELEASAIENLLQTKSEIITPLAFQRSLEKKAKKQIKKVVLPESEDERILKAAHRLNLMGAVGLILLGDKEAINSQAKNLNLNLENVEIINPNTSHYREEFAKSLYELRKSKGLSEQEAERLALDKTYFATMLVHLGYAHAMVSGVNHTTAETIRPALQIIKTKPGVSLVSSVFLMCLDTQVFVFGDCAIIPNPSPKELAEIATTSAQTAKQFNIAPKVALLSYATGNSAQGEMIDKINEALTIVQKLDPQLEIDGPLQFDASIDKGVAKKKMPNSQVAGQASVFIFPDLNAGNIAYKAVQRSAKAVAIGPILQGLNKPINDLSRGALVEDIVNTVLISAIQAQDYEGHHHHHH	not soluble
MSLRDEQEIYNLVLNIANQDKRIEAVLLNGSRANPNVPKDDFQDYDIVFVTNFIEDIISDTNYHKKFGDILIMQKPNEFRNKTEYNCFAYLMQFQDLTRIDLRLIKPEFLEDYLDDAFSKVLLDKKNKYLDYNFERSSLYETKQLSEDEINKILNEIYWVSTYVVKGIARNDIIYSEFMISNPIKNAFIKLLKQKILIEKELDSLSFGKLDKDILQYITDKDQLLKIFSNKSLKDIEANLRFLLDETNQMAKYISINRKLNLNQGEYQSAMKFMNIFLSNSYQNFNEGHHHHHH	soluble
MSLRDSAFFETGEKHFRTLCSSCHSAHQEIYGPMLGSISKKRKESWLIPFIRNSQEVIRSGDAYAKALFEKFDHQIMPPFEQLSDQDIKAILYYLEIESLQPQEYLNDAAIPPTSDSSVIRGKQEFLDHCSMCHFVHKESTFAPALGSVTKRHSREWLISFIQNSEKKINQGDAYAVHLFNQFDQHVMTNMDFLPIEEINAILDYIEFASTVDVAEGHHHHHH	not soluble
MSLRDTVLVVDDEPDSLRFLADTLEGAGIRVLVAISGDAALDVLQHVEPDLILMDGVMPGRSGFETTACIKARPELAHVPVVFMTGLHDDEHVVRGFEVGGVDYLRKPVNVQELLARVRVHVGNARAIQAGAAGLDATGRLMMATDLQGGLLWCTPLAERAIARACPGWSRDAGALPDALREPVRKMLGRGAAQSGSVKVEQVDGTMELVVIAQYRGQEVLIRVNELNPKADIALLQQKLGLTDREAEVLLWTSYGKSNATISEVLAISPRTVQKHLERIYEKLGIETRAAAAAVAIKALGNEGHHHHHH	soluble
MSLREGYLPAVITVSGKDRPGVTAAFFRVLSANQVQVLDVEQSMFRGFLNLAAFVGIAPERVETVTTGLTDTLKVHGQSVVVELQETVQSSRPRSSHVVVVLGDPVDALDISRIGQTLADYDANIDTIRGISDYPVTGLELKVTVPDVSPGGGEAMRKALAALTSELNVDIAIERSGLLRRSKRLVCFDCDSTLITGEVIEMLAAHAGKEAEVAAVTERAMRGELDFEESLRERVKALAGLDASVIDEVAAAIELTPGARTTIRTLNRMGYQTAVVSGGFIQVLEGLAEELELDYVRANTLEIVDGKLTGNVTGKIVDRAAKAEFLREFAADSGLKMYQTVAVGDGANDIDMLSAAGLGVAFNAKPALKEIADTSVNHPFLDEVLHIMGISRDEGHHHHHH	soluble
MSLRIAIVGAGALGLYYGALLQRSGEDVHFLLRRDYEAIAGNGLKVFSINGDFTLPHVKGYRAPEEIGPMDLVLVGLKTFANSRYEELIRPLVEEGTQILTLQNGLGNEEALATLFGAERIIGGVAFLCSNRGEPGEVHHLGAGRIILGEFLPRDTGRIEELAAMFRQAGVDCRTTDDLKRARWEKLVWNIPFNGLCALLQQPVNLILARDVSRKLVRGIMLEVIAGANAQGLATFIADGYVDDMLEFTDAMGEYKPSMEIDREEGRPLEIAAIFRTPLAYGAREGIAMPRVEMLATLLEQATGEGHHHHHH	soluble
MSLRILDIREQAIPVSRYDDPAIASGGLTTSIVAIVTDVVRDGRPVTGYGYASAGRFAQGGLIRERFAPRLLAAAEALADDAGTNLDPLRAWRAMMAGEKPGGHGERCVAVGTLDMAIWDAAAKIARVPLHCLIADRLGRAAPARTARVRVYAGGGYRYPRDDLARLSDEMRRIVDLGYTHAKIKIGATDLDVDRRRIEAAAARLADSAHLAVDAMNAYDATNAGDAAAMLAPFGLWWFEDVCDPLDLPLHAQLAAQYAPPIAAGEALFSLAEAKLLDRYGGLRSDRDVLVFDPVHCYGLSGYLQIVDHFVSRGWRRDAFWPHGGHLFSLHVVAALGLGGAEVNPFAFHPFSGLADGERVDAGYAALPSAPGIGFECHARVHAAFRALSVREGHHHHHH	soluble
MSLRKGNEIELLVEGIEFPAKGFGFVDGLKVYAKNTFPGQKVFGRVTKKRKEYAEIRVSEVREKASYEEDQKCPHFGVCGGCSSQTIPYEKQLELKVEQVKDLFKEAEVPTGEFLGIETSPIQWEYRNKMEYTFGDEEKGGELTLGMHMKGKSFGIVNVDKCVLVDEDFRNILDTTVKYFREKGLPFYKIMPRTGYLRYLVVRKSVKTEEILVNLVTTTQIDFDLTEFTELIKGLNLKGKLKSIIHTESDALSEAVIPEKVNILYGDDFITENLLGLNFKISPFSFFQTNSLGAEKLYSIVRDFMGAADNKVVFDLYCGTGTIGQIAAGKASKVIGIELIEEAAMAANENAKLNGLNNCNFIAGDVAEVIKTVKDKPDIIILDPPRSGVHPKALDYVIKFNAPQIIYVSCNPKTLVTDLKVLEAKGYEIEKTLLMDMFPNTPHVETVVKLNKKEGHHHHHH	soluble
MSLRKSTLSGEVRVRNHQLGIYEKALAKDLSWPERLVLAKSCGFDFVEMSVDETDERLSRLDWSAAQRTSLVAAMIETGVGIPSMCLSAHRRFPFGSRDEAVRERAREIMSKAIRLARDLGIRTIQLAGYDVYYEDHDEGTRQRFAEGLAWAVEQAAASQVMLAVEIMDTAFMNSISKWKKWDEMLASPWFTVYPDVGNLSAWGNDVPAELKLGIDRIAAIHLKDTQPVTGQSPGQFRDVPFGEGCVDFVGIFKTLHKLNYRGSFLIEMWTEKAKEPVLEIIQARRWIEARMQEAGFICEGGSHHHHHH	soluble
MSLRMRVGKFDYLNNFLPYYFLNEKVEIVEANPREMASMLLSGRIDYAPVPAFFYLKNRERLRHYEFCVASEGKVLSVVVVSRKKELDDGSIAVTPHSLTSVNLLKILLAERGMKNMLVEVNTAKASEMLELCPHALVIGDEAIKARMIYKVVMDLGEEWYELTSLPAVFGISASLKETNAEEMDRKILMATEEGYRRFDEVVRAAEKAFKMPREFLEEYFRTLKFRLSSKERRGLDEFEKYCRDYEGHHHHHH	soluble
MSLRNKLLTIFDSVDESARIKDAFITQLESSITDAGVLALKLELLDFLTSNLSNYSRTMTISHLLLGFQVSNVISLGPNLATFISSGTSLLDSLISVLEASLNSITKDNIDYAPMRLATAALEIILKLCRNPLTSGLLYSYLIKENFFERIMILDPQVTRFTTWNGSPFDNSTEEKCKNFIESESVGAFLSFLAYRNYWTQYLGLFIHKISFSGTKSEVLTYVNYLISNTMYSVRLFSFLDPLNYGNICEPKETLSIFTNVPLNLEQVTLNKYCSGNIYDFHKMENLMRLIKRVRAESLHSNEGHHHHHH	soluble
MSLRNMSIINSTPVRVIAIVGCDGSGKSTLTASLVNELAARMPTEHIYLGQSSGRIGEWISQLPVIGAPFGRYLRSKAAHVHEKPSTPPGNITALVIYLLSCWRAYKFRKMLCKSQQGFLLITDRYPQVEVPGFRFDGPQLAKTTGGNGWIKMLRQRELKLYQWMASYLPVLLIRLGIDEQTAFARKPDHQLAALQEKIAVTPQLTFNGAKILELDGRHPADEILQASLRAIHAALSEGHHHHHH	soluble
